Measurements published in PMC5610937 (Journal of molecular biology, 2017).

What was measured:
[1] = molecular target: human ROR2 ectopically and stably expressed on mouse pre-B cell line 63-12 (Homo sapiens (Human)., UniProt Q01974); assay: flow cytometry on cells
Fc-hROR2 protein [2] = molecular target: T1, Fc-hROR2 protein (Homo sapiens (Human)., UniProt Q01974); assay: ELISA
[3] = molecular target: human Fc fusion protein of the extracellular domain of mouse ROR1 (Mus musculus (Mouse)., UniProt Q9Z139); assay: ELISA
[4] = molecular target: human ROR1 ectopically and stably expressed on mouse pre-B cell line 63-12 (Homo sapiens (Human)., UniProt Q01973); assay: flow cytometry on cells
[5] = molecular target: mouse ROR2 extracellular domains displayed on HEK293F cells (Mus musculus (Mouse)., UniProt Q9Z138); assay: flow cytometry on cells
Fc-hROR2 protein [6] = molecular target: T1, Fc-hROR2 protein; assay: SPR

Sequence of mouse ROR2 extracellular domains displayed on HEK293F cells (Q9Z138 34-403): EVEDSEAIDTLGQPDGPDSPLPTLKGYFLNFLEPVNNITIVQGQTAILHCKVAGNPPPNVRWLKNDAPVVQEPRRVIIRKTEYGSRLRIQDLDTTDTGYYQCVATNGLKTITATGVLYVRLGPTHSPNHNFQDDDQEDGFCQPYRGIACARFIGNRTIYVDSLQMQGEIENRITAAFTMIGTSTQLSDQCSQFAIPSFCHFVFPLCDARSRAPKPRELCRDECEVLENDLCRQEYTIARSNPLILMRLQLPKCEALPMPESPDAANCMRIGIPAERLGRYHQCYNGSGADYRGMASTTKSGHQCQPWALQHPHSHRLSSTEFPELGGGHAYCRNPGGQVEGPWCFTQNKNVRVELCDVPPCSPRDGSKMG
Sequence of human Fc fusion protein of the extracellular domain of mouse ROR1 (Q9Z139 30-406): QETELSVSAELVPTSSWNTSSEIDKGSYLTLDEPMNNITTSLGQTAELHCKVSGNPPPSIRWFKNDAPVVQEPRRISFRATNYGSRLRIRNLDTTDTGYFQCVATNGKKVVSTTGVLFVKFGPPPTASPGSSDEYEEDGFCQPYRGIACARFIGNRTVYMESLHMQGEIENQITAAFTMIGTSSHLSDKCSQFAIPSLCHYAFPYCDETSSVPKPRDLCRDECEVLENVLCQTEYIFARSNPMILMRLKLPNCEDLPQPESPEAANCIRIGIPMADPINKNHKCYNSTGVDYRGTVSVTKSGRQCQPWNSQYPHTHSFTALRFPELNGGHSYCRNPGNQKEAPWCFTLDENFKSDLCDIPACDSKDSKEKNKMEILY

B1: chimeric rabbit/human anti-human ROR1 Fab ERR1-TOP43 (Fab, V domains shown)
VH: QSLEESGGRLVTPGTPLTLTCTVSGFSLSSYWMSWVRQAPGKGLEWIGAIYGSGNTYYASWAKGRFTISKTSTTVDLKITSPTTEDTATYFCARDVHSTATDLWGPGTLVTISS
VL: SYELTQLPSVSVSLGQTARITCGGNNIGSKAVNWYQQKPGLAPGLLIYNDDERPSGVPDRFSGSNSGDTATLTISGAQAGDEADYYCQLWDSSAGAYVFGGGTQLTVT
B1: no binding (tested: 10 μg/mL) [1]; no binding (tested: 100 ng Fab in 50 μL) (Fc-hROR2 protein [2]); no binding (tested: 100 ng Fab in 50 μL) [3].

B2: chimeric rabbit/human anti-human ROR1 Fab ERR1-TOP15 (Fab, V domains shown)
VH: QEQLVESGGRLVTPGGSLTLTCAASGFSPSSYWMSWVRQAPGKGLEWIGAIYVDSGSAYYASWAKSRFTISKTSSTTVDLKMTSLTTEDTAIYFCARDGWGSDVWGPGTLVTISS
VL: SYELTQLPSVSVSLGQTARITCGGNSIGSKAVHWYQQKPGLAPGLLIYDDDERPSGVPDRFSGSNSGDTATLTISGAQAGDEADYYCQLWDSSAGAYVFGGGTQLTVT
B2: no binding (tested: 10 μg/mL) [1]; no binding (tested: 100 ng Fab in 50 μL) (Fc-hROR2 protein [2]); no binding (tested: 100 ng Fab in 50 μL) [3].

B3: chimeric rabbit/human anti-human ROR1 Fab ERR1-301 (Fab, V domains shown)
VH: QEQLEESGGGLVTPGGSLTLTCTASGFTISTYHMSWVRQAPGKGLEWIGSIYAGSGSTYYASWVNGRFTISSNTTQNTVSLQMNSLTVADTATYFCARDHPSYGMDLWGPGTLVTVSS
VL: SYELTQLPSVSVSLGQTARITCGGNSIGSKAVNWYQQKPGLAPGLLIYDDDERPSGVPDRFSASNSGDTATLTISGAQAEDEADYYCQLWDSSAVAYVFGGGTQLTVT
B3: no binding (tested: 10 μg/mL) [1]; no binding (tested: 100 ng Fab in 50 μL) (Fc-hROR2 protein [2]); no binding (tested: 100 ng Fab in 50 μL) [3].

B4: chimeric rabbit/human anti-human ROR1 Fab ERR1-316 (Fab, V domains shown)
VH: QEQLEESGGRLVTPGTPLTLTCTASGFFLSSYYVSWVRQAPGKGLEWIGAIGTGGSAYYASWAKSRSTITRNTNLSTVTLKMTSLTAADTATYFCARDHPNYGMDLWGPGTLVTVSS
VL: SYELTQLPSVSVSLGQTARITCGGNSIGSKAVNWYQQKPGLAPGLLIYDDDERPSGVPDRFSGSNSGDTATLTISGAQAGDEADYYCQLWDSSTGAYAFGGGTQLTVT
B4: no binding (tested: 10 μg/mL) [1]; no binding (tested: 100 ng Fab in 50 μL) (Fc-hROR2 protein [2]); no binding (tested: 100 ng Fab in 50 μL) [3].

B5: chimeric rabbit/human anti-human ROR1 Fab ERR1-TOP54 (Fab, V domains shown)
VH: QSLEESGGRLVTPGTPLTLTCTASGFSLSDYYMSWVRQAPGEGLEWIGTIYGGSGNTWYATWAKGRFTISKTSTTVDLKITSPTTEDTATYFCARDFGLSTGGLWGPGTLVTISS
VL: SYELTQLPSVSVSLGQTARITCGGNSIGSKAVNWYQQKPGLAPGLLIYDDDERPSGVPDRFSGSNSGDTATLTISGAQAGDEADYYCQLWDSSARAFVFGGGTQLTVT
B5: no binding (tested: 10 μg/mL) [1]; no binding (tested: 100 ng Fab in 50 μL) (Fc-hROR2 protein [2]); no binding (tested: 100 ng Fab in 50 μL) [3].

B6: chimeric rabbit/human anti-human ROR1 Fab ERR1-403 (Fab, V domains shown)
VH: QEQLKESGRGLVQPGGSLKLSCKASGFDFSGWYMTWVRQAPGKGLEWIGTIGTTKGRTYYASWVNGRFTISSNAQNTVDLQMNSLTAADRATYFCVRGSDYFDLWGPGTLVTISS
VL: SYELTQLPSVSVSLGQTARITCGGNSIGSKAVNWYQQKPGLAPGLLIYDDDERPSGVPARFSGSNSGDTATLTISGAQAGDEADYYCQLWDSSAGAYVFGGGTQLTVT
B6: no binding (tested: 10 μg/mL) [1]; no binding (tested: 100 ng Fab in 50 μL) (Fc-hROR2 protein [2]); no binding (tested: 100 ng Fab in 50 μL) [3].

B7: chimeric rabbit/human anti-human ROR1 Fab ERR1-409 (Fab, V domains shown)
VH: QEQLVESGGRLVTPGGSLTLTCTASGFSLSSYYMGWVRQAPGKGLEWIGTIYGGSGSTWYASWVKGRFTISKTSTAVDLKITSLTTEDTATYFCARSYPGWTTEPYFDIWGPGTLVTVSS
VL: QFVLTQPQSVSGSLGQTVSISCNRDSGNIEDYYVHWYQQHPGKAPTTVIYNDDQRPSGVPDRFSGSIDSTSNSASLTITGLLAEDEADYYCLSSDSSAYVFGGGTQLTVT
B7: no binding (tested: 10 μg/mL) [1]; no binding (tested: 100 ng Fab in 50 μL) (Fc-hROR2 protein [2]); no binding (tested: 100 ng Fab in 50 μL) [3].

B8: chimeric rabbit/human anti-human ROR2 Fab XBR2-TOP72 (Fab, V domains shown)
VH: QEQLEESGGRLVTPGTPLTLTCTVSGIDLSSNAMSWVRQAPGKGLEYVGFINGGGGVHYASWARGRFTISKTSTTVDLKITSPTTEDTATYFCARAGTTYYTSFNLWGPGTLVTISS
VL: QFVLTQSPSASAALGSSAKLTCTLSSAHKTYTIAWYQQQQGEAPRLLMMLRTDGSYTKGTGVPDRFSGSSSGADRYLIISSVQADDAAGYYCGADYSGGYVFGGGTQLTVT
B8 was tested, and the binding result [4] was “no binding”, the binding result [5] was “binds” and the Kd (Fc-hROR2 protein [6]) was 4150 nM.

B9: chimeric rabbit/human anti-human ROR2 Fab XBR2-433 (Fab, V domains shown)
VH: QSVKESEGGLFKPTDTLTLTCTVSGFSLSTYGVSWVRQAPGNGLEWIGAIGSSGSANYASWAKDRSTITRNTNLNTVTLKMTSLTAADTATYFCARDGYYSSGWGPYFNIWGPGTLVTISS
VL: SFVLTQPASVQVNLGQTVSLTCTADTLSRSYASWYQQKPGQAPVLLIYRDTSRPSGVPDRFSGSSSGNTATLTISGAQAGDEADYYCATSGGSGSNPQYVFGGGTQLTVT
B9 was tested, and the binding result [4] was “no binding”, the binding result [5] was “binds” and the Kd (Fc-hROR2 protein [6]) was 2280 nM.

B10: chimeric rabbit/human anti-human ROR1 Fab ERR1-306 (Fab, V domains shown)
VH: QEQLKESGGGLVQPGGSLKLSCKASGFDLSNYGVSWVRQAPGKGLEWIGYIDPTFDYTYYASWVNGRFSISRENTQNTVSLQINSLTPADTATYFCARWVYGVDDYGDGNWLDLWGQGTLVTISS
VL: QFVLTQSPSVSAALGASAKLTCTLSSAHKTYTIDWYQQQQGEAPRYLMELKSDGSYTKGTGVPDRFSGSSSGADRYLIIPSVQADDEADYYCGTDYSGGYVFGGGTQLTVT
B10: no binding (tested: 10 μg/mL) [1]; no binding (tested: 100 ng Fab in 50 μL) (Fc-hROR2 protein [2]); binds [3].

B11: chimeric rabbit/human anti-human ROR2 Fab ERR2-302 (Fab, V domains shown)
VH: QKQLVESGGGLVKPGGSLTLTCTVSGFSLSSYAIGWVRQAPGNGLEWIGIINSYGSTYYASWAKSRSTITRNTNLNTVTLKMTSLTAADTATYFCARSPYGYVSAWGYHRLDLWGQGTLVTISS
VL: SYELTQLPSVSVSLGQTARITCGGASIGSKVVHWYQQKPGLAPGLLIYDDDERPSGVPDRFSGSNSGDTATLTISGAQAGDEAEYYCQLWDGSDVVFGGGTQLTVT
B11 was tested, and the binding result [4] was “no binding”, the binding result [5] was “binds” and the Kd (Fc-hROR2 protein [6]) was 52.5 nM.

B12: chimeric rabbit/human anti-human ROR1 Fab ERR1-TOP4 (Fab, V domains shown)
VH: QSVEESGGRLVTPGTPLTLTCTASGIDLSRYAVNWVRQAPGKGLEWIGVISGSGTTYYASWAKGRFTISKTSTTVDLKITSPTTEDTATYFCARGWATDGIFDYDDTFNLWGPGTLVTVSS
VL: SYELTQLPSVSVSLGQTARITCGGDSIESKAVHWYQQKPGLAPGLLVYNDDERPSGVPDRFSGSNSGDTATLTISGAQAGDEADYYCQLWDGSAYVFGGGTQLTVT
B12: no binding (tested: 10 μg/mL) [1]; no binding (tested: 100 ng Fab in 50 μL) (Fc-hROR2 protein [2]); no binding (tested: 100 ng Fab in 50 μL) [3].

B13: chimeric rabbit/human anti-human ROR1 Fab ERR1-TOP22 (Fab, V domains shown)
VH: QSLEESGGRLVTPGTPLTLTCTVSGFSLSSYYMSWVRQAPGKGLEWIGTISSSGSTYYASWVKGRFTISKTSTTVDLKMTSLTTEDTATYFCARDLDYDMDLWGPGTLVTVSS
VL: SYELTQLPSVSVSLGQTARITCGGNSIGSKAVHWYQQKPGLAPGLLIYNDDERPSGVPDRFSGSNSGDTATLTISGAQAGDEADYYCQLWDNNAAVFGGGTQLTVT
B13: no binding (tested: 10 μg/mL) [1]; no binding (tested: 100 ng Fab in 50 μL) (Fc-hROR2 protein [2]); binds [3].

B14: chimeric rabbit/human anti-human ROR1 Fab XBR1-402 (Fab, V domains shown)
VH: QEQQKESGGGLFKPTDTLTLTCTASGFDISSYYMSWVRQAPGNGLEWIGAIGISGNAYYASWAKSRSTITRNTNLNTVTLKMTSLTAADTATYFCARDHPTYGMDLWGPGTLVTVSS
VL: SYELTQLPSVSVSLGQTARITCEGNNIGSKAVHWYQQKPGLAPGLLIYDDDERPSGVPDRFSGSNSGDTATLTISGAQAGDEADYYCQVWDSSAYVFGGGTQLTVT
B14: no binding (tested: 10 μg/mL) [1]; no binding (tested: 100 ng Fab in 50 μL) (Fc-hROR2 protein [2]); no binding (tested: 100 ng Fab in 50 μL) [3].
